The test system of one data set is HUVECs. The data set is described as follows: HUVEC viability (cell counting Kit-8). In kind it is cell-based, human. To be noted: 2 days. The protocol:
In order to evaluate effects of deglyco C1 IgG on toxicity of endothelial cells, after treatment with deglyco C1 IgG, viability of HUVECs was measured. Viability was measured in accordance with the manufacturer's manual through cell counting Kit-8 (#CK04-13, Dojindo Laboratories, Kumamoto, Japan).
In general terms: Tetrazolium assays rely on reduction of a dye to a coloured formazan, in cell work by metabolically active cells.

Data set [1] deals with VEGF-dependent blood vessel growth in rat aorta. The data set is described as follows: ex vivo rat aortic ring assay. The note with it: cultured in combination with VEGF. The protocol:
In order to further investigate effects of deglyco C1 IgG on VEGF-dependent angiogenesis, ex vivo rat aortic ring assay was conducted in the presence or absence of deglyco C1 IgG and bevacizumab. Blood vessels were almost not grown in the rat aorta in endothelial basal medium (EBM), whereas most blood vessels were grown in the rat aorta under VEGF expression conditions.

The test system of another data set is U87 human glioma. The data set is described as follows: U87 tumor growth. In kind it is in vivo. To be noted: measured weekly for one month.
In data set [2] the test system is HCT116 human colorectal cancer cells. The data set is described as follows: Matrigel plug angiogenesis assay, CD31 microvessel density. The note with it: single dose of 5 mg/kg, 14 days. The data set is classed as in vivo. On the procedure: (§1) Matrigel plug angiogenesis assay was conducted in the presence of deglyco C1 IgG or bevacizumab with a single dose of 5 mg/kg or the absence thereof using HCT116 human colorectal cancer cells and bevacizumab-applied HCT116 human colorectal cancer cells (HCT116 and HCT116/Beva). 14 days later, the Matrigel plug was removed, and immunohistochemistry was conducted on CD31 and microvascular markers. A microvessel density was measured by quantifying CD31 positive per field in an image each obtained by a confocal microscope.

For the next data set, the system named is HCT116/Beva cells. The data set is described as above. The data set is classed as in vivo. To be noted: single dose of 5 mg/kg, 14 days. On the procedure:
as §1

The test system of another data set is SNU182 cells. The data set is described as follows: tumor cell-derived Matrigel plug angiogenesis assay. The data set is classed as in vivo, mouse. To be noted: single dose of 10 mg/kg, 2 weeks, nude mice. The protocol:
(§2) In order to investigate in vivo effects of deglyco C1 IgG on tumor angiogenesis, tumor cell-derived Matrigel plug angiogenesis assay was conducted on thymus-removed nude mice. SNU182- and CFPAC-1 cells and U87 human glioma cells containing Matrigel were transplanted into thymus-removed nude mice in the presence of deglyco C1 IgG and bevacizumab with a single dose of 10 mg/kg or in the absence thereof. 2 weeks later, the Matrigel plug was removed and the total hemoglobulin content of each group was measured with an ELISA reader.

A further data set has as its system U87 human glioma cells. The description is as above. The note with it: single dose of 10 mg/kg, 2 weeks, nude mice. The data set is classed as in vivo, mouse. On the procedure: as §2
In another data set the test system is CFPAC-1 cells. The data set is described as above. The note with it: single dose of 10 mg/kg, 2 weeks, nude mice. The data set is classed as in vivo, mouse. On the procedure: as §2
In data set [3] the test system is VEGF-dependent microvessel formation. The data set is described as follows: mouse Matrigel plug assay, VEGF-dependent microvessel formation. The data set is classed as in vivo. On the procedure:
In order to observe in vivo efficacies of deglyco C1 IgG on VEGF-dependent angiogenesis, a mouse Matrigel model was established, hemoglobin level was measured as a marker of microvessel formation, and inhibitory activities against microvessel formation of deglyco C1 IgG and bevacizumab were compared by a mouse Matrigel plug assay.

Data set [4] addresses T1, human CLEC14a on human umbilical vein endothelial cells (HUVECs) (human, UniProt Q86T13 22-490).
T1 construct: whole, on cells; also called CLEC14a on HUVEC surfaces
T1 sequence (looked up): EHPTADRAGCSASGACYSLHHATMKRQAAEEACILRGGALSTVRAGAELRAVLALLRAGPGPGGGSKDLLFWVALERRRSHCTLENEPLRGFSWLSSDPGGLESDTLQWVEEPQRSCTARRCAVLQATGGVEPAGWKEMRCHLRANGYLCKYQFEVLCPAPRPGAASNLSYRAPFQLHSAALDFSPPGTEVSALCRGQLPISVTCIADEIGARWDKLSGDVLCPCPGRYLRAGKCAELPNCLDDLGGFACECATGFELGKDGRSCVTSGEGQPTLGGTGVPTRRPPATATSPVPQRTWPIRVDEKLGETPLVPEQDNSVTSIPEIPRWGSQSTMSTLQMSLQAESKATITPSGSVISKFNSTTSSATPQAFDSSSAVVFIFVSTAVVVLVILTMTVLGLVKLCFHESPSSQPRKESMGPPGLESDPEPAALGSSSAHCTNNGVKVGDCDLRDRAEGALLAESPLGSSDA
The data set is described as follows: cell ELISA on HUVECs coated on the plate. The protocol:
In order to analyze action mechanisms of deglyco C1 IgG at a molecule-scale, specifically, in angiogenesis, HUVECs were treated with hclec14a-CTLD-Fc-HRP (HRP-labeled hclec14a-CTLD-Fc) in the absence or presence of an increasing concentration of parent antibody IgG or deglyco C1 IgG.
A general note: ELISA stands for enzyme-linked immunosorbent assay.

The target of data set [5] is T2, hclec14a-ECD-myc (human, UniProt Q86T13 22-397).
T2 construct: extracellular domain; Purified protein; also called extracellular domain of human clec14a; not shown: myc tag
T2 sequence (looked up): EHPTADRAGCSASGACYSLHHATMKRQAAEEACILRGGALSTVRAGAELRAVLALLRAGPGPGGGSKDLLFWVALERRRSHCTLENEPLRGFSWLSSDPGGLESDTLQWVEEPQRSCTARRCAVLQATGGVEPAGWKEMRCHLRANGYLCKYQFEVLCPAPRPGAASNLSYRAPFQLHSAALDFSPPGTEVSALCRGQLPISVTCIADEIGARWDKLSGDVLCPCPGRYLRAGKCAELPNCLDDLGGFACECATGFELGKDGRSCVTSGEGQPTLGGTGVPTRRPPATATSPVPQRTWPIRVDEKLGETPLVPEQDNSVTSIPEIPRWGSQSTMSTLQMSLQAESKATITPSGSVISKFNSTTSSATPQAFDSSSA
The data set is described as follows: ELISA, hclec14a-CTLD-Fc-HRP with hclec14a-ECD. The protocol:
In addition, hclec14a-CTLD-Fc-HRP was incubated together with purified hclec14a-ECD in the presence of an increasing concentration of parent antibody IgG or deglyco C1 IgG, or in the absence thereof.

Data set [6] has as its target T3, mouse CLEC14a on mouse aortic endothelial cells (MAECs) (mouse, UniProt Q8VCP9 22-459).
T3 construct: whole, on cells
T3 sequence (looked up): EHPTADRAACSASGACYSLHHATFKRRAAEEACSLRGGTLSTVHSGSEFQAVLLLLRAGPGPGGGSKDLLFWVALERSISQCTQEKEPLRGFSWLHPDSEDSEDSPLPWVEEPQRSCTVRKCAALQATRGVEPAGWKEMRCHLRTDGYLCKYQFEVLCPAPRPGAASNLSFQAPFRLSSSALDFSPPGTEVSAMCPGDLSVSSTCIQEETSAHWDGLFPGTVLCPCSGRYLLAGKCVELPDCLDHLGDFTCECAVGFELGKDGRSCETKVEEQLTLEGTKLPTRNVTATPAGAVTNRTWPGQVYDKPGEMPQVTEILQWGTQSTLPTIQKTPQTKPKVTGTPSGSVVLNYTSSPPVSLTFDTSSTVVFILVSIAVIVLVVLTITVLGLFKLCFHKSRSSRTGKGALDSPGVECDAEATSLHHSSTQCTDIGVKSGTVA
The data set is described as follows: flow cytometry on MAEC. On the procedure: (§3) In order to identify cross-species reactivity of the optimized antibodies, HUVECs (human umbilical vein endothelial cells) and MAECs (mouse aortic endothelial cells) were each cultured, the two cell groups were treated with 20 ug/ml of the parent antibody (original C1), deglyco C1, and clones 1, 13 and 16, and whether or not binding ability exists on the surface of two types of cells was identified by flow cytometry.
(In general: A flow cytometer gives signals particle by particle.)

In data set [7] the target is T1, human CLEC14a on human umbilical vein …. The data set is described as follows: flow cytometry on HUVEC. On the procedure:
as §3

Data set [8] deals with T2, hclec14a-ECD-myc. The data set is described as follows: biolayer interferometry, Octet RED96.
A further data set concerns the target T4, mclec14a-CTLD-Fc (mouse, UniProt Q8VCP9 31-172, limits assumed).
T4 construct: domain: C-type lectin-like domain (CTLD); also called mouse clec14a-CTLD-Fc; mouse CTLD; not shown: Fc
T4 sequence (looked up): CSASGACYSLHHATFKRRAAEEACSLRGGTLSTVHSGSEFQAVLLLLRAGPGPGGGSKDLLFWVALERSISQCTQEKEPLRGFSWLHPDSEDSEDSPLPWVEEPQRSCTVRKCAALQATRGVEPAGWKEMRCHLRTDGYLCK
The data set is described as follows: ELISA on mclec14a-CTLD-Fc.

The target of data set [9] is T2, hclec14a-ECD-myc. The data set is described as follows: biolayer interferometry (Octet RED96), curves at 62.5, 31.25, 15.625 and 7.8125 nM.

Positions count from the first letter of the chain named.

Usually Kd stands for the free concentration of one partner at which half of the binding sites on the other are occupied at equilibrium, for simple one-to-one binding. The koff is the rate constant with which the complex falls apart. A high value points to fast dissociation. In general, kon refers to the rate constant with which the complex forms. Higher therefore signals faster complex formation.

For the molecule `O=c1[nH]cc(F)c(=O)[nH]1` [Opti 5-FU, 5-fluorouracil, reference compound], the “viability of HUVECs” value in the data set with HUVECs is recorded as “significantly reduced viability”.
On to bevacizumab [reference compound], for which the “number of blood vessels grown in the rat aorta” value in data set [1] was “reduced the number of blood vessels grown in the rat aorta”. The “tumor size of U87 cells” value with U87 human glioma is given as “significantly reduces the tumor sizes”. For the same molecule, the “microvessel formation (CD31 positive per field), HCT116” value in data set [2] is “significantly reduced microvessel formation ability”. Moreover, the “microvessel formation (CD31 positive per field), HCT116/Beva” value in the data set on HCT116/Beva cells is recorded as “not suppressed”. Also, the “hemoglobin content, SNU182-derived” value with SNU182 cells was “significantly reduced hemoglobin”. Moreover, the “hemoglobin content, U87-derived” value in the data set with U87 human glioma cells is “significantly reduced hemoglobin”. Moreover, the “hemoglobin content, CFPAC-1-derived” value in the data set on CFPAC-1 cells was “significantly reduced hemoglobin”. Besides, in [3], the “hemoglobin content (microvessel formation)” value was “significantly reduced a hemoglobin content”.

B1: hclec14a-CTLD-Fc (Fc fusion, human, UniProt Q86T13 31-172, looked up)
chain: CSASGACYSLHHATMKRQAAEEACILRGGALSTVRAGAELRAVLALLRAGPGPGGGSKDLLFWVALERRRSHCTLENEPLRGFSWLSSDPGGLESDTLQWVEEPQRSCTARRCAVLQATGGVEPAGWKEMRCHLRANGYLCK
notes: domain: C-type lectin-like domain (CTLD); also called human clec14a-CTLD-Fc; human CTLD; not shown: Fc
B1: the binding result (in [4]; with hclec14a-ECD-myc [5]) was “binds” throughout.

B2: Opti 13 (antibody, V domains shown)
VH: EVQLVESGGGLVQPGGSLRLSCAVSGFTFSGYDMSWIRQAPGKGLEWVAGIYPDGGNTYYADSVKGRFTISRDDSKNTFYLQMNSLRAEDTAVYYCARGAMEQVLGPFDLWGQGTLVTVSS
VL: DIQLTQSPSSLSASVGDRVTITCTGSSSNIGRCGVTWYQQKPGKAPKLLIYADSHRPSGVPSRFSGSGSGTDFTLTISSLQPEDFATYYCGAWDDSLSGYVFGQGTKVEIKR
notes: IgG from HEK293 cells; also called clone 13; optimized antibody clone 13
Take B2: the binding result in data set [6] and in data set [7] was “binds” in each case.

B3: deglyco C1 IgG (antibody, V domains shown)
VH: B2 VH with M101T, E102W, Q103W, L110Y
VL: B2 VL
notes: IgG expressed in HEK293 cells; In some assays conjugated with HRP; also called Deg C1; deglyco C1 IgG-HRP (HRP-conjugated form)
Turning to B3, the Kd with hclec14a-ECD-myc [8] was 6 nM. In the data set with mclec14a-CTLD-Fc, the binding result was “binds”. Further, in data set [6], the binding result is given as “binds”. In the data set with hclec14a-ECD-myc [9], this molecule returned a Kd of 6.07 nM, a koff of 0.000297 s⁻¹ and a kon of 49000 M⁻¹ s⁻¹.

B4: Opti 1 (antibody, V domains shown)
VH: B2 VH with M101A, E102T, Q103K, P107K, L110C
VL: B2 VL
notes: IgG from HEK293 cells; also called optimized antibody clone 1
Consider B4, for which the binding result in data set [6] and in data set [7] was “binds” each time.

The record behind these values is patent US20190309074A1, “DEGLYCOSYLATED ANTIBODY SPECIFICALLY BINDING TO CLEC14A AND USES THEREOF” (WOORI TECHNOLOGIES CORPORATION, priority 2016, published 2019).
